In US20140087995A1 (published 2014):
Numbered stars: 1 amine (or outer) side, 2 acyl side, 3 side chain; on linkers, the order of the positions; unused ones are H or OH. Bridge positions count the residues as written; N and C are the ends. Side chains are listed from the residue outwards. Ends that are not written are not given here. * marks the point of attachment. C20 diacid = O=C(O)CCCCCCCCCCCCCCCCCCC(=O)*; γGlu = O=C(O)[C@H](CCC(=O)[*:2])N[*:1]

Key:
[1] = target: T1, human amylin receptor (amylin 3(a) receptor: human calcitonin receptor with RAMP-3) (human, UniProt P30988 25-474; O60896 24-148); test: SPA competition with 125I-rat amylin on membranes of BHK cells with human calcitonin receptor and RAMP-3 (Assay V)
T1 construct: whole, on cells; Assay used cell membranes of the Amylin 3(a)/CRE-luc BHK cells, not intact cells; also called hAmylin-R; hAmylinR
T1 sequence (looked up) 1: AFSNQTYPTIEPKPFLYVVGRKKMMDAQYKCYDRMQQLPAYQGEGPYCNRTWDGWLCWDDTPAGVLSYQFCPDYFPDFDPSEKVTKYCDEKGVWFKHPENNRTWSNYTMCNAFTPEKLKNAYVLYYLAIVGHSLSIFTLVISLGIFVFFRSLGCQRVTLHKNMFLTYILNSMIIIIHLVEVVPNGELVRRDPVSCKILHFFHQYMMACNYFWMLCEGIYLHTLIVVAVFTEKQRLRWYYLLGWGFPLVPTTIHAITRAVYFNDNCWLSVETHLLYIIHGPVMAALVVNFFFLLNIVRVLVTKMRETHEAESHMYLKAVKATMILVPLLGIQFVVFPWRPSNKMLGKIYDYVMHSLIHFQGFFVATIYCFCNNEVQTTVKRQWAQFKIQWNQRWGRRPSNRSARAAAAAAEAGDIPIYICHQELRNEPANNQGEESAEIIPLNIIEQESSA
T1 sequence (looked up) 2: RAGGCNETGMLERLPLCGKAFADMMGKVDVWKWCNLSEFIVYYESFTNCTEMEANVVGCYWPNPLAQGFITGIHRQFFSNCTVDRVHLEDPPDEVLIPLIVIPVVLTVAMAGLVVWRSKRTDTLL
How it was run: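 SPA beads + BHK amylin 3(a)/CRE-luc membranes, 35 ng/μL final; buffer 50 mM Hepes pH 7.4, 1 mM CaCl2, 5 mM MgCl₂, 0.1% OA, 0.02% Tween20. 120 min, 25° C, shaken; scintillation count. IC₅₀ by one-site binding competition fit, taken as receptor affinity.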

[2] = target: T2, human calcitonin receptor (human, UniProt P30988 25-474); test: SPA competition with 125I-calcitonin on membranes of BHK cells with human calcitonin receptor (Assay VII)
T2 construct: whole, on cells; Assay used cell membranes, not intact cells; also called hCTR; hCT
T2 sequence (looked up): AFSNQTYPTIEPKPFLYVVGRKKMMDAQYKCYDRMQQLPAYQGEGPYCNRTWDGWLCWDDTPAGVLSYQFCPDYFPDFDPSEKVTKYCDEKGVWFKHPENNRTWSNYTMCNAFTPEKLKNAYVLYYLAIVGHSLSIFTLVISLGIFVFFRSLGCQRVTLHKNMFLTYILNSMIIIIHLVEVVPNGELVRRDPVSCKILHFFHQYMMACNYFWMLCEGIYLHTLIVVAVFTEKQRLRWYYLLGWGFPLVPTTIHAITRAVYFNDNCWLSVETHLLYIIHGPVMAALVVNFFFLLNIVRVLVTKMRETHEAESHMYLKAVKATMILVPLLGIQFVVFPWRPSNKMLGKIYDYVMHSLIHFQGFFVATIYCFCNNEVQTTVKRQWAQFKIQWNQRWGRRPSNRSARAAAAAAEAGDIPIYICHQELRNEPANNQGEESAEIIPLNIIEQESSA
How it was run: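 BHK hCTR membranes 35 ng/μL + SPA beads 0.05 mg/well; buffer 50 mM Hepes pH 7.4, 1 mM CaCl2, 5 mM MgCl₂, 0.1% OA, 0.02% Tween20. 120 min, 25° C., shaking. Scintillation count; IC50 by one-site binding competition.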

[3] = target: T2, human calcitonin receptor; test: ratio IC50 hCTR / IC50 hAmylin-R (reference: human amylin receptor), SPA competition assays
How it was run: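 Membranes (35 ng/μL final) + SPA beads, 50 mM Hepes pH 7.4 buffer with 1 mM CaCl2, 5 mM MgCl₂, 0.1% OA, 0.02% Tween20; 120 min, 25° C, shaking; centrifuged, counted; IC₅₀ by one-site binding competition.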

IC50 [1] [nM]	IC50 [2] [nM]	Ratio hCT/hAmylin binding [3]	Binder
0.163	6.3	38.6	K([γGlu-C20 diacid])CNTATCATQRLAEFLRHSSPNFGAIPSSTNVGPRTY-NH2 (disulfide 2-7; N-terminus assumed; SMILES CC[C@H](C)[C@H](NC(=O)[C@H](C)NC(=O)CNC(=O)[C@H](Cc1ccccc1)NC(=O)[C@H](CC(N)=O)NC(=O)[C@@H]1CCCN1C(=O)[C@H](CO)NC(=O)[C@H](CO)NC(=O)[C@H](Cc1c[nH]cn1)NC(=O)[C@H](CCCNC(=N)N)NC(=O)[C@H](CC(C)C)NC(=O)[C@H](Cc1ccccc1)NC(=O)[C@H](CCC(=O)O)NC(=O)[C@H](C)NC(=O)[C@H](CC(C)C)NC(=O)[C@H](CCCNC(=N)N)NC(=O)[C@H](CCC(N)=O)NC(=O)[C@@H](NC(=O)[C@H](C)NC(=O)[C@@H]1CSSC[C@H](NC(=O)[C@@H](N)CCCCNC(=O)CC[C@H](NC(=O)CCCCCCCCCCCCCCCCCCC(=O)O)C(=O)O)C(=O)N[C@@H](CC(N)=O)C(=O)N[C@@H]([C@@H](C)O)C(=O)N[C@@H](C)C(=O)N[C@@H]([C@@H](C)O)C(=O)N1)[C@@H](C)O)C(=O)N1CCC[C@H]1C(=O)N[C@@H](CO)C(=O)N[C@@H](CO)C(=O)N[C@H](C(=O)N[C@@H](CC(N)=O)C(=O)N[C@H](C(=O)NCC(=O)N1CCC[C@H]1C(=O)N[C@@H](CCCNC(=N)N)C(=O)N[C@H](C(=O)N[C@@H](Cc1ccc(O)cc1)C(N)=O)[C@@H](C)O)C(C)C)[C@@H](C)O)
0.876	80.4	91.8	K([γGlu-C20 diacid])CNTATCATQRLAHFLRHSSPNFGAIPSSTNVGRNTY-NH2 (disulfide 2-7; N-terminus assumed; SMILES CC[C@H](C)[C@H](NC(=O)[C@H](C)NC(=O)CNC(=O)[C@H](Cc1ccccc1)NC(=O)[C@H](CC(N)=O)NC(=O)[C@@H]1CCCN1C(=O)[C@H](CO)NC(=O)[C@H](CO)NC(=O)[C@H](Cc1c[nH]cn1)NC(=O)[C@H](CCCNC(=N)N)NC(=O)[C@H](CC(C)C)NC(=O)[C@H](Cc1ccccc1)NC(=O)[C@H](Cc1c[nH]cn1)NC(=O)[C@H](C)NC(=O)[C@H](CC(C)C)NC(=O)[C@H](CCCNC(=N)N)NC(=O)[C@H](CCC(N)=O)NC(=O)[C@@H](NC(=O)[C@H](C)NC(=O)[C@@H]1CSSC[C@H](NC(=O)[C@@H](N)CCCCNC(=O)CC[C@H](NC(=O)CCCCCCCCCCCCCCCCCCC(=O)O)C(=O)O)C(=O)N[C@@H](CC(N)=O)C(=O)N[C@@H]([C@@H](C)O)C(=O)N[C@@H](C)C(=O)N[C@@H]([C@@H](C)O)C(=O)N1)[C@@H](C)O)C(=O)N1CCC[C@H]1C(=O)N[C@@H](CO)C(=O)N[C@@H](CO)C(=O)N[C@H](C(=O)N[C@@H](CC(N)=O)C(=O)N[C@H](C(=O)NCC(=O)N[C@@H](CCCNC(=N)N)C(=O)N[C@@H](CC(N)=O)C(=O)N[C@H](C(=O)N[C@@H](Cc1ccc(O)cc1)C(N)=O)[C@@H](C)O)C(C)C)[C@@H](C)O, also called compound 85)
0.179	3.8	21.2	K([γGlu-C20 diacid])CNTATCATQRLAEFLRHSSPNFGAIPSSTNVGPHTY-NH2 (disulfide 2-7)
0.14	1.86	13.3	K([γGlu-C20 diacid])CNTATCATQRLAEFLRHSSPNFGAIPSSTNVGPETY-NH2 (disulfide 2-7; N-terminus assumed; SMILES CC[C@H](C)[C@H](NC(=O)[C@H](C)NC(=O)CNC(=O)[C@H](Cc1ccccc1)NC(=O)[C@H](CC(N)=O)NC(=O)[C@@H]1CCCN1C(=O)[C@H](CO)NC(=O)[C@H](CO)NC(=O)[C@H](Cc1c[nH]cn1)NC(=O)[C@H](CCCNC(=N)N)NC(=O)[C@H](CC(C)C)NC(=O)[C@H](Cc1ccccc1)NC(=O)[C@H](CCC(=O)O)NC(=O)[C@H](C)NC(=O)[C@H](CC(C)C)NC(=O)[C@H](CCCNC(=N)N)NC(=O)[C@H](CCC(N)=O)NC(=O)[C@@H](NC(=O)[C@H](C)NC(=O)[C@@H]1CSSC[C@H](NC(=O)[C@@H](N)CCCCNC(=O)CC[C@H](NC(=O)CCCCCCCCCCCCCCCCCCC(=O)O)C(=O)O)C(=O)N[C@@H](CC(N)=O)C(=O)N[C@@H]([C@@H](C)O)C(=O)N[C@@H](C)C(=O)N[C@@H]([C@@H](C)O)C(=O)N1)[C@@H](C)O)C(=O)N1CCC[C@H]1C(=O)N[C@@H](CO)C(=O)N[C@@H](CO)C(=O)N[C@H](C(=O)N[C@@H](CC(N)=O)C(=O)N[C@H](C(=O)NCC(=O)N1CCC[C@H]1C(=O)N[C@@H](CCC(=O)O)C(=O)N[C@H](C(=O)N[C@@H](Cc1ccc(O)cc1)C(N)=O)[C@@H](C)O)C(C)C)[C@@H](C)O)
0.271	23.6	87.2	K([γGlu-C20 diacid])CNTATCATQRLAHFLRHSSPNFGAIPSSTNVGHNTY-NH2 (disulfide 2-7; N-terminus assumed; SMILES CC[C@H](C)[C@H](NC(=O)[C@H](C)NC(=O)CNC(=O)[C@H](Cc1ccccc1)NC(=O)[C@H](CC(N)=O)NC(=O)[C@@H]1CCCN1C(=O)[C@H](CO)NC(=O)[C@H](CO)NC(=O)[C@H](Cc1c[nH]cn1)NC(=O)[C@H](CCCNC(=N)N)NC(=O)[C@H](CC(C)C)NC(=O)[C@H](Cc1ccccc1)NC(=O)[C@H](Cc1c[nH]cn1)NC(=O)[C@H](C)NC(=O)[C@H](CC(C)C)NC(=O)[C@H](CCCNC(=N)N)NC(=O)[C@H](CCC(N)=O)NC(=O)[C@@H](NC(=O)[C@H](C)NC(=O)[C@@H]1CSSC[C@H](NC(=O)[C@@H](N)CCCCNC(=O)CC[C@H](NC(=O)CCCCCCCCCCCCCCCCCCC(=O)O)C(=O)O)C(=O)N[C@@H](CC(N)=O)C(=O)N[C@@H]([C@@H](C)O)C(=O)N[C@@H](C)C(=O)N[C@@H]([C@@H](C)O)C(=O)N1)[C@@H](C)O)C(=O)N1CCC[C@H]1C(=O)N[C@@H](CO)C(=O)N[C@@H](CO)C(=O)N[C@H](C(=O)N[C@@H](CC(N)=O)C(=O)N[C@H](C(=O)NCC(=O)N[C@@H](Cc1c[nH]cn1)C(=O)N[C@@H](CC(N)=O)C(=O)N[C@H](C(=O)N[C@@H](Cc1ccc(O)cc1)C(N)=O)[C@@H](C)O)C(C)C)[C@@H](C)O, also called compound 81)
